# Measurements published in patent publication US20060078953.
# Test system: histone H4 methylated at arginine 3
substance,measurement,value
commercially available skeletal muscle PAD,Western blot staining with antibodies to methylated arginine 3 H4 after PAD treatment,A complete loss of staining with antibodies to this modification was observed following PAD treatment.
